According to patent US20030054360:

Assays:
Assay in all cases: filter
[1] = target: T1, human neutrophil elastase (hNE) (Homo sapiens) (UniProt P08246); details: 5-BrdU replaces T
T1 sequence: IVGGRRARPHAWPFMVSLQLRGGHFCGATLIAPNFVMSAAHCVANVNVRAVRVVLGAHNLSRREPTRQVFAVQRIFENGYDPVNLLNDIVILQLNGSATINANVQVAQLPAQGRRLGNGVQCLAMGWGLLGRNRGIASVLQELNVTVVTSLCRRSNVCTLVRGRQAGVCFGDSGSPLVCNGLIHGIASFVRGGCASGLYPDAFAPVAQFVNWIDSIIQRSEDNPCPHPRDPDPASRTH

Plasmin = Plasmin (UniProt P00747+P00747); details: 5-BrdU replaces T; apparent photocrosslink KD; plateau 50%
Chain of Plasmin (P00747 97-580, chain 1 of 2): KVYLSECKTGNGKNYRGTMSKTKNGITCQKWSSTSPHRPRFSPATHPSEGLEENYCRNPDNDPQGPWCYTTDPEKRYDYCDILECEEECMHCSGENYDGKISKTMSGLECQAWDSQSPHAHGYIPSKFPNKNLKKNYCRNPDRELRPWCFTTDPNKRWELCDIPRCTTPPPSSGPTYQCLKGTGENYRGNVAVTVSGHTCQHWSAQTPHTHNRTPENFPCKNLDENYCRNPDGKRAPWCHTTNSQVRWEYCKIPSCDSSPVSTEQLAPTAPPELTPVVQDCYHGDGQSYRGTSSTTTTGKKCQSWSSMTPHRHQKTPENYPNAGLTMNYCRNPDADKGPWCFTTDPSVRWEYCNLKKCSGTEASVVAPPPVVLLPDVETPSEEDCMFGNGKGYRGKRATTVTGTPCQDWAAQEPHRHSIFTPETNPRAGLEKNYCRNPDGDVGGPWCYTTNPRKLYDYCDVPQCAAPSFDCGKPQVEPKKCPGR
Chain of Plasmin (P00747 581-810, chain 2 of 2): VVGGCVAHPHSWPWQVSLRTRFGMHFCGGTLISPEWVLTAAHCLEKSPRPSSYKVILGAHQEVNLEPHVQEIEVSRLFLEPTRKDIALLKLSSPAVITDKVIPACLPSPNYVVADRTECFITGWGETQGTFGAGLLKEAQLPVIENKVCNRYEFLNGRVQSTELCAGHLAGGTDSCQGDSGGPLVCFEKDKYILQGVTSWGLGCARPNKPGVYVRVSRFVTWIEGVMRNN

Endostatin = target: T2, Endostatin (UniProt P39060); details: 5-BrdU replaces T; apparent photocrosslink KD; plateau 75%
T2 sequence: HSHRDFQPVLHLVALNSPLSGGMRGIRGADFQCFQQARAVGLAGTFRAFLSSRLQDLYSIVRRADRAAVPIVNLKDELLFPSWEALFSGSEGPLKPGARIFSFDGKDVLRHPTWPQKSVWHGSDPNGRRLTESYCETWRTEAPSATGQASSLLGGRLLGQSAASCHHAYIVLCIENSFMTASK

[2] = target: T3, UDP-glucuronosyl transferase (UGT) 1A1 (UniProt P22309); details: 5-BrdU replaces T; apparent photocrosslink KD; plateau 70%
T3 sequence: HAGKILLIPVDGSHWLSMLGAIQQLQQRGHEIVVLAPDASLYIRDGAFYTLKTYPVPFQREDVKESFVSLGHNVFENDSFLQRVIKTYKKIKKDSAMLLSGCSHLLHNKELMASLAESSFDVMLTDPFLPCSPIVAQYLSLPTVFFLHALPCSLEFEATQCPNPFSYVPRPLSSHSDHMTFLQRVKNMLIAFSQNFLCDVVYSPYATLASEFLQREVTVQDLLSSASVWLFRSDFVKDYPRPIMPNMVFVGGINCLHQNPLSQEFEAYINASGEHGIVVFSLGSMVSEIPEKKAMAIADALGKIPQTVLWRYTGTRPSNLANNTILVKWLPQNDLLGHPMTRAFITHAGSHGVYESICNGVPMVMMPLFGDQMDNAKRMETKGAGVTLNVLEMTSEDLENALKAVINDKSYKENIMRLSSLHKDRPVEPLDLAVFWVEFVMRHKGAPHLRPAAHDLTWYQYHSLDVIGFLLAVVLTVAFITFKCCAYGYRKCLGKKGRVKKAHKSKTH

[3] = target: T4, L-Selectin (Homo sapiens) (UniProt P14151); details: 5-BrdU replaces T; apparent photocrosslink KD; plateau 25%
T4 sequence: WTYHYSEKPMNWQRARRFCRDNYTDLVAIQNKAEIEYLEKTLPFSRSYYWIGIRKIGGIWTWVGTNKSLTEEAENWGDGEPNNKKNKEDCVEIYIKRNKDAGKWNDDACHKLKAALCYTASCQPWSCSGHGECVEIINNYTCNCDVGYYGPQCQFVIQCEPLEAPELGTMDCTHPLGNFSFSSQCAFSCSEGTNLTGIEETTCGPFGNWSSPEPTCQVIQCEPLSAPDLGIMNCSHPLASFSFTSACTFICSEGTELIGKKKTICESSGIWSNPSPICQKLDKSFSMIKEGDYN

Factor H = Factor H (UniProt P08603); details: 5-BrdU replaces T; apparent photocrosslink KD; plateau 65%; abstract prints Factor II
Chain of Factor H (P08603 19-1231): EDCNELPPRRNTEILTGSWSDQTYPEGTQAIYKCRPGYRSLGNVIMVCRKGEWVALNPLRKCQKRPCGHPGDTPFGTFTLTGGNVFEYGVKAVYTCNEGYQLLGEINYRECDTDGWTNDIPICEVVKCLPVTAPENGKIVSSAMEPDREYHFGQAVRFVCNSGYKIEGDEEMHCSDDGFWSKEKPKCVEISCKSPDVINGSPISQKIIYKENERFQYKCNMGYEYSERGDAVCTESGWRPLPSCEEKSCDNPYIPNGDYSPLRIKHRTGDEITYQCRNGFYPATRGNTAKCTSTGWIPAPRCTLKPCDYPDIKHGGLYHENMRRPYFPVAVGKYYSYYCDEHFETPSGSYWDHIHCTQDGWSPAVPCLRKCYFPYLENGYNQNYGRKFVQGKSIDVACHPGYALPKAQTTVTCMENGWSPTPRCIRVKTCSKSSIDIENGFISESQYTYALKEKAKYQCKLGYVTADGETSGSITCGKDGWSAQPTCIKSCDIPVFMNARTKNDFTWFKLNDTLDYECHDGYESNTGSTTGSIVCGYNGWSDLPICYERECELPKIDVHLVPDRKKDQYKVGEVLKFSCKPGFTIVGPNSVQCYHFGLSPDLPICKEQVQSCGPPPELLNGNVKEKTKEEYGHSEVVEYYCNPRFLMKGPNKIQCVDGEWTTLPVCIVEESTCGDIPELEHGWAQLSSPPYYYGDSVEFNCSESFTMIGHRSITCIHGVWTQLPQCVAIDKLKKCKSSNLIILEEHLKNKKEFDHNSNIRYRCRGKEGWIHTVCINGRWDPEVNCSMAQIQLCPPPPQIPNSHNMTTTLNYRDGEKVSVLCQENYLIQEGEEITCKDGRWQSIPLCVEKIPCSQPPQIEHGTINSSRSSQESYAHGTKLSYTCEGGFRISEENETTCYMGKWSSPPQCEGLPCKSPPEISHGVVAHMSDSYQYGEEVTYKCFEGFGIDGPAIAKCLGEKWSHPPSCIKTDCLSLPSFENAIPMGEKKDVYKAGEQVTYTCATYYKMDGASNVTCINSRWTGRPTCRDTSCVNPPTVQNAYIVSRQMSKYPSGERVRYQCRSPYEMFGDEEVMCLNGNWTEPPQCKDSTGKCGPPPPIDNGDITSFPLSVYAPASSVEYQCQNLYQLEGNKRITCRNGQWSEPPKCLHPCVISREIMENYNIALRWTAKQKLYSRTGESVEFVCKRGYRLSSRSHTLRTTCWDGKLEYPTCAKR

Collagen = details: 5-BrdU replaces T; apparent photocrosslink KD; plateau 25%
Coagulation Factor XII = target: T5, Coagulation Factor XII (UniProt P00748); details: 5-BrdU replaces T; apparent photocrosslink KD; plateau 45%
T5 sequence: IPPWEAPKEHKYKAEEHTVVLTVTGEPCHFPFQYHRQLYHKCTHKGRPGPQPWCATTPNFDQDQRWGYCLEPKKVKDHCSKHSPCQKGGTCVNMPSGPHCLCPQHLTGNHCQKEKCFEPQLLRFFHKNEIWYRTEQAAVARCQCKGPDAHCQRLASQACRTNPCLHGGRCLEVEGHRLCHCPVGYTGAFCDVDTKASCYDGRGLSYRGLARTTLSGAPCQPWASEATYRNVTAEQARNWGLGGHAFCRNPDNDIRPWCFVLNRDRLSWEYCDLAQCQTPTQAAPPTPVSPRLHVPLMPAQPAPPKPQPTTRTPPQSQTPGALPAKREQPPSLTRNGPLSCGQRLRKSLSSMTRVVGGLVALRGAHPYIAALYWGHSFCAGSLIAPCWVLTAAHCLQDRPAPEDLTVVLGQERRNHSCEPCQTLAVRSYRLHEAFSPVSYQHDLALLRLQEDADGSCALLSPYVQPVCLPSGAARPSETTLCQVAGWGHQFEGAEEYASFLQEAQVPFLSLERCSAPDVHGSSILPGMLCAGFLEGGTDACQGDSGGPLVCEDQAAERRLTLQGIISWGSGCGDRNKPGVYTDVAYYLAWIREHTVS

[4] = target: Hepatocyte Growth Factor (HGF) (UniProt P14210+P14210); details: 5-BrdU replaces T; apparent photocrosslink KD; plateau 73%
Chain of Hepatocyte Growth Factor (HGF) (P14210 32-494, chain 1 of 2): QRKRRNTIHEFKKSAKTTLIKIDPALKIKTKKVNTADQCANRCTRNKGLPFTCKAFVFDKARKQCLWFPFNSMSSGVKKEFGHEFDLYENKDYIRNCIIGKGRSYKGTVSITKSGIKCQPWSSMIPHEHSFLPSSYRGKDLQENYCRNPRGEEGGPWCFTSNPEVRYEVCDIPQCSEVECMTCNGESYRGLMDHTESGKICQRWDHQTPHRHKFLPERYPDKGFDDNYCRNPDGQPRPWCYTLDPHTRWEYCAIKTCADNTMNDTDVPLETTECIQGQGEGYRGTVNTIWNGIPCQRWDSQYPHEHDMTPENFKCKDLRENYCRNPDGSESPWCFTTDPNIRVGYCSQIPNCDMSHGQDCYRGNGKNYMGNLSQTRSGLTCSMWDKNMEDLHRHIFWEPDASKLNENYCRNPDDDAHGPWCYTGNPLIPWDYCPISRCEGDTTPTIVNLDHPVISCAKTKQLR
Chain of Hepatocyte Growth Factor (HGF) (P14210 495-728, chain 2 of 2): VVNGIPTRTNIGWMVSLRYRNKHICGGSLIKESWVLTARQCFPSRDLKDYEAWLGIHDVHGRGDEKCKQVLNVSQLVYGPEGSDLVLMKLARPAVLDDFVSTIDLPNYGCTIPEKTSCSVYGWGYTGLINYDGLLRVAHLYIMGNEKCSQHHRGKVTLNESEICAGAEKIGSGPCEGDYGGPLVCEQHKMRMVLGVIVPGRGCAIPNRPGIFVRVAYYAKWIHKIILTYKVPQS

CTLA-4 Fc = CTLA-4 Fc (UniProt P16410); details: 5-BrdU replaces T; apparent photocrosslink KD; plateau 7%
Chain of CTLA-4 Fc (P16410 36-161): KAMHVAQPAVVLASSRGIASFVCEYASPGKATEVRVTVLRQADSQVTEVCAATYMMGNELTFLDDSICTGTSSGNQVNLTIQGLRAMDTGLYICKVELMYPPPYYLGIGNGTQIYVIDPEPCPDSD

Kininogen = target: T6, Kininogen (UniProt P01042); details: 5-BrdU replaces T; apparent photocrosslink KD; plateau 64%
T6 sequence: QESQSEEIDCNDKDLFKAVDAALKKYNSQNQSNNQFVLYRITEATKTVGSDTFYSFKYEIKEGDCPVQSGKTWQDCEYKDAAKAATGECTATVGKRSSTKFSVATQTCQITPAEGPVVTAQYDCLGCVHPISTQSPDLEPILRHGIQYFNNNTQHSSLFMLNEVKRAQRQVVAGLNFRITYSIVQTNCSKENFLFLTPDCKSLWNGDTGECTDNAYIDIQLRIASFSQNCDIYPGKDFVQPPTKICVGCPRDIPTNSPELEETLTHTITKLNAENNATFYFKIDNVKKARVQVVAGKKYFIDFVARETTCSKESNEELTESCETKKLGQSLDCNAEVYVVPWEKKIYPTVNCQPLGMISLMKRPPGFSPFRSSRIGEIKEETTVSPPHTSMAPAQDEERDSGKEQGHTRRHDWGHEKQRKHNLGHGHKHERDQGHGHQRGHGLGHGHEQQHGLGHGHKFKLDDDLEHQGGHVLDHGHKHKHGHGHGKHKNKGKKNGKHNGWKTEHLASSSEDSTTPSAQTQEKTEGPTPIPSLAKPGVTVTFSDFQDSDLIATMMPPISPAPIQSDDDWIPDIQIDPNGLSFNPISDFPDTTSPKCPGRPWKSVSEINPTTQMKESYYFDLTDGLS

[5] = target: alpha-thrombin (Homo sapiens) (UniProt P00734+P00734); details: 5-BrdU replaces T, apparent photocrosslink KD
IGFBP-3 = IGFBP-3 (UniProt P17936); details: 5-BrdU replaces T; apparent photocrosslink KD; plateau 52%
Chain of IGFBP-3 (P17936 28-291): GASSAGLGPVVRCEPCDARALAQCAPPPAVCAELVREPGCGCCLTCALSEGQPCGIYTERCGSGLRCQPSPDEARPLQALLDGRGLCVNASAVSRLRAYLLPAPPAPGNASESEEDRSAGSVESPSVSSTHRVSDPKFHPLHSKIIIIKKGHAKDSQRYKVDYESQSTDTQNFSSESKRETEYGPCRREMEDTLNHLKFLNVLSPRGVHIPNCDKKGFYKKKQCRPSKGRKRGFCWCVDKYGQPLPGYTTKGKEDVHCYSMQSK

Thrombopoietin (Tpo) = Thrombopoietin (Tpo) (UniProt P40225); details: 5-BrdU replaces T; apparent photocrosslink KD; plateau 50%
Chain of Thrombopoietin (Tpo) (P40225 22-353): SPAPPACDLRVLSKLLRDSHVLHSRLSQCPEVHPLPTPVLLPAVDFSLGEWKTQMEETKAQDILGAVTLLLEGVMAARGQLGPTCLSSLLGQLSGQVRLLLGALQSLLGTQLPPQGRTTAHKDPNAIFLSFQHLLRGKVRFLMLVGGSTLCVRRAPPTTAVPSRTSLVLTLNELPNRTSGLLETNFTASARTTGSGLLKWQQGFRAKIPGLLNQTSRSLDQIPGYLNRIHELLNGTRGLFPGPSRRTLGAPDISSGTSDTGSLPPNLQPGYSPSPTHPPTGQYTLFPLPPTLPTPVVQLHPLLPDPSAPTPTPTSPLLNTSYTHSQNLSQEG

[6] = target: Transforming Growth Factor beta1 (TGF-beta1) (UniProt P01137); details: 5-BrdU replaces T, apparent photocrosslink KD
Chain of Transforming Growth Factor beta1 (TGF-beta1) (P01137 279-390): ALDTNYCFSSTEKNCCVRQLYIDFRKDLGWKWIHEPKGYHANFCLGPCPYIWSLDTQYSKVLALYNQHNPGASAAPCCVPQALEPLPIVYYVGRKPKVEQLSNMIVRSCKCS

Serum Amyloid P = Serum Amyloid P (UniProt P02743); details: 5-BrdU replaces T; apparent photocrosslink KD; plateau 55%
Chain of Serum Amyloid P (P02743 20-223): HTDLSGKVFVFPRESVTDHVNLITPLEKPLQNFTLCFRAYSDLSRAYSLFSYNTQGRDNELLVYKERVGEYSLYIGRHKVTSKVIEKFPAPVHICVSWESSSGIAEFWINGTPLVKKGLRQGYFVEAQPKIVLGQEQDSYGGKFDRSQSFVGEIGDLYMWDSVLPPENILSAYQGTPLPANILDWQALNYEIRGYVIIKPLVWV

Coagulation Factor IX = Coagulation Factor IX (UniProt P00740); details: 5-BrdU replaces T; apparent photocrosslink KD; plateau 75%
Interleukin-7 = target: T7, Interleukin-7 (UniProt P13232); details: 5-BrdU replaces T; apparent photocrosslink KD; plateau 50%
T7 sequence: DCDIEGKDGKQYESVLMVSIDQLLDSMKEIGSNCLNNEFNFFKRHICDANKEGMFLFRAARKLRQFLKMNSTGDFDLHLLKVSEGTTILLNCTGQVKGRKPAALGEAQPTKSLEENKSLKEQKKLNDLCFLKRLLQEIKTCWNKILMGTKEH

Sequence: ATATATATGGGAGGACGATGCGGCAACCCACCACTCTATCTTTCCCATAACTGCAGACGACGAGCGGGAAAAAAAA [hNE pool 2 clone 43]
- Kd ([1]; apparent photocrosslink KD, plateau 27%, rate 0.14): 61 nM

Sequence: ATATATATGGGAGGACGATGCGGCAACCCTGACACCACGTTGTTTCTCCTTTTGGGGTAACCGCAGACGACGAGCGGGAAAAAAAA [Plasmin pool 050 clone 25]
- Kd (Plasmin): 78 nM

Sequence: ATATATATGGGAGGACGATGCGGCACAATGAAGTCACTCTTGACGCTTGTATTCAGACGACGAGCGGGAAAAAAAA [Endostatin pool 92 clone 4]
- Kd (Endostatin): 2.7 nM

Sequence: ATATATATGGGAGGACGATGCGGCACCTGATTTCTACCCTTTACTTTGTGTGGCAGACGACGAGCGGGAAAAAAAA [UGT 1A1 pool 319 clone 73]
- Kd [2]: 22 nM

Sequence: ATATATATGGGAGGACGATGCGGCCGGTTCACGTGCACCATCCGTGTGCTAGACAGACGACGAGCGGGAAAAAAAA [L-Selectin pool 048 clone 21]
- Kd [3]: 7 nM

Sequence: ATATATATGGGAGGACGATGCGGCCTCATAAAGTTACATCGGCAATTCTTCTCCAGACGACGAGCGGGAAAAAAAA [Factor H pool 94 clone 12]
- Kd (Factor H): 14 nM

Sequence: ATATATATGGGAGGACGATGCGGCTACTCCTCCTTAACCCGGGTCTTGTGGCCCAGACGACGAGCGGGAAAAAAAA [Collagen pool 100 clone 36]
- Kd (Collagen): 0.75 nM

Sequence: ATATATATGGGAGGACGATGCGGCTGCGTGACAGTTATACTGTTATTGGTCTTCAGACGACGAGCGGGAAAAAAAA [Factor XII pool 89 clone 51]
- Kd (Coagulation Factor XII): 53 nM

Sequence: ATATATATGGGAGGACGATGCGGGACGACTAGCCTAGTGCCCTTACGATCACCCAGACGACGAGCGGGAAAAAAAA [HGF pool 107 clone 23]
- Kd [4]: 0.53 nM

Sequence: ATATATATGGGAGGACGATGCGGGACGCTAATACTTCTGGAGTGGAACGGTTTCAGACGACGAGCGGGAAAAAAAA [CTLA-4 Fc pool 101 clone 60]
- Kd (CTLA-4 Fc): 8 nM

Sequence: ATATATATGGGAGGACGATGCGGGACGCTAGTACCCTGGCTGGCTTGGTTGGGCAGACGACGAGCGGGAAAAAAAA [Kininogen pool 046 clone 31]
- Kd (Kininogen): 7 nM

Sequence: ATATATATGGGAGGACGATGCGGGAGGAGCTGATGGGTGGTGAGGTTGGCCAGACGACGAGCGGGAAAAAAAA [Thrombin pool 5 clone 51]
- Kd ([5]; plateau 6%, rate 0.4): 0.04 nM

Sequence: ATATATATGGGAGGACGATGCGGGCAAAGTGTTATTTCTTGATCTGTTTCACCCAGACGACGAGCGGGAAAAAAAA [IGFBP-3 pool 112 clone 65]
- Kd (IGFBP-3): 6 nM

Sequence: ATATATATGGGAGGACGATGCGGGCACACCCAACCTTGCTTCTTCAATCTAATCTCCACTTTGCAGACGACGAGCGGGAAAAAAAA [Tpo pool 059 clone 34]
- Kd (Thrombopoietin (Tpo)): 64 nM

Sequence: ATATATATGGGAGGACGATGCGGGCACATCACTCTATCATTTGCTACGGTACCGGAGTGAGTCCAGACGACGAGCGGGAAAAAAAA [hNE pool 2 clone 18]
- Kd ([1]; apparent KD from photocrosslinking 308 nm, plateau 37%, rate 0.72 J-1 cm2): 21 nM

Sequence: ATATATATGGGAGGACGATGCGGGCACCTTTCTTACATCTTGGCTTCATTCTTGCACCATTGGCAGACGACGAGCGGGAAAAAAAA [TGF-beta1 pool 015 clone 83]
- Kd ([6]; plateau 80%, rate 0.82): 4.3 nM

Sequence: ATATATATGGGAGGACGATGCGGGCAGCAACCTACCTTACCTTCCCCTAGCCTACCTTATCCCCAGACGACGAGCGGGAAAAAAAA [TGF-beta1 pool 015 clone 82]
- Kd ([6]; plateau 100%, rate 0.54): 7.1 nM

Sequence: ATATATATGGGAGGACGATGCGGGCAGGACGGACAGCAAGGGGTGAGCACGAGCAGACGACGAGCGGGAAAAAAAA [Thrombin pool 5 clone 75]
- Kd ([5]; plateau 62%): 110 nM

Sequence: ATATATATGGGAGGACGATGCGGGCAGTAGGTTGGGTAGGGTGGTCTGCTCAGACGACGAGCGGGAAAAAAAA [Thrombin pool 5 clone 4]
- Kd ([5]; plateau 25%, rate 0.4): 0.03 nM

Sequence: ATATATATGGGAGGACGATGCGGGCCAATCTGTCTTCTTTCCATCCTTATGATCAGACGACGAGCGGGAAAAAAAA [hNE pool 2 clone 73]
- Kd ([1]; apparent photocrosslink KD, plateau 32%, rate 0.28): 29 nM

Sequence: ATATATATGGGAGGACGATGCGGGCCGACTCTGAGGAAAAGGTTTTATGTATGGCTACCCCTGCAGACGACGAGCGGGAAAAAAAA [Serum Amyloid P pool 051 clone 50]
- Kd (Serum Amyloid P): 0.54 nM

Sequence: ATATATATGGGAGGACGATGCGGGCGGTTGGCGTGGTTGGAAATGTCCCGTCAGACGACGAGCGGGAAAAAAAA [Thrombin pool 5 clone 77]
- Kd ([5]; plateau 9%, rate 0.64, Table 7 sequence differs from listing (GGTTGCTGTGG vs ggttggcgtgg)): 0.05 nM

Sequence: ATATATATGGGAGGACGATGCGGGCGTCTGGGATTTGGACTTCTTCGCTAGCTCAGACGACGAGCGGGAAAAAAAA [Factor IX pool 87 clone 50]
- Kd (Coagulation Factor IX): 6.2 nM

Sequence: ATATATATGGGAGGACGATGCGGGCTGAAAGGAAACGGACGATTGAGCTTCCCCTTACCTCTCCAGACGACGAGCGGGAAAAAAAA [IL-7 pool 042 clone 5]
- Kd (Interleukin-7): 11 nM
